In IntAct's records for PubMed 22927393:

B1: Epsin-1 (Saccharomyces cerevisiae), Q12518 (parent)
chain: MSKQFVRSAKNLVKGYSSTQVLVRNATSNDNHQVSKDSLIELAEKSYDSADFFEIMDMLDKRLNDKGKYWRHIAKALTVIDYLIRFGSENCVLWCRENLYIIKTLKEFRHEDDEGIDQGQIVRVKAKELTALLSDDERLNEERNMNIKGRNRKGRRRRGTGRSDENDDDLQRAISASRLTAEEDERRRKQDEDYETALQLSKEEEELKRLQDLQRMQQQQGQQQLQQPMYYDIFGNPITPEEYAQFQLQQQQQQQQQQLQQQPMYYDVFGNPITPEELAQFQQQQQLQEQQYLASMQQQQQAMSNNPFAKSEQSSSSPKRNQLVAASSPQQLQQQKQQEPLIQNRTGNQSMTDKYSKLNELLATGTGIDTFGNVGEARIPAQHTKTGTFINSQGTGYRQVSDDPNHNPFLNSQYTGLPSTSVVPTQTGYGFGNQSQQQSQNNGSNNRGYTLIDL
partner: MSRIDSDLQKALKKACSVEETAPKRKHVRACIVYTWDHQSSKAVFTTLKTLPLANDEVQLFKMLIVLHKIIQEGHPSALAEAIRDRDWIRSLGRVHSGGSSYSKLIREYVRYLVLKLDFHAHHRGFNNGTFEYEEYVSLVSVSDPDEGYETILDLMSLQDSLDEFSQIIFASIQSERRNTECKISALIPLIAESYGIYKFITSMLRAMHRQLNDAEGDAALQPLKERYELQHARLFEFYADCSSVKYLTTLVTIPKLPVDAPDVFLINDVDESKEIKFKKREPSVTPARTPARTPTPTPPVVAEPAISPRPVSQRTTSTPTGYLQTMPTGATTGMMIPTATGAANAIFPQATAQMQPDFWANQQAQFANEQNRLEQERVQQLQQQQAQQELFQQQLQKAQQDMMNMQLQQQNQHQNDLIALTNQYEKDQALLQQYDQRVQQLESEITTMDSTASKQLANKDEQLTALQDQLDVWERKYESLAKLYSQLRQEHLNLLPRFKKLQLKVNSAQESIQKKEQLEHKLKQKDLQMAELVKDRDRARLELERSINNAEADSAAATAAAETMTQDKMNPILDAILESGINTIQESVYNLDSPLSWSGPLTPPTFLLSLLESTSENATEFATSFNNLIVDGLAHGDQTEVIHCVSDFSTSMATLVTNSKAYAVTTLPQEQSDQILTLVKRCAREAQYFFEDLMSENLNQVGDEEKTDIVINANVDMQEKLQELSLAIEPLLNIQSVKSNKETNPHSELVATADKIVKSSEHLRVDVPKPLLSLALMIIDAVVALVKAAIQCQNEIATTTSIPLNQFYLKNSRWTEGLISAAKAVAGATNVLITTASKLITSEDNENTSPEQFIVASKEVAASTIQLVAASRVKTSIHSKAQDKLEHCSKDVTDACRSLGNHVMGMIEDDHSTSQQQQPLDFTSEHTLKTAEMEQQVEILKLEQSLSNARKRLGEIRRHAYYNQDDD

Variants of: B1
Conditions: with sla2_yeast SLA2, P33338

Row | effect of a mutation on the interaction | Variant
1 | disrupting interaction strength | T104A
